Measurements reported in patent US20110059504A1 (GENERAL HOSPITAL, published 2011).
Substitutions are numbered along the chain they refer to. Names and notes keep the numbering of the source.

T1: human myostatin (human, UniProt O14793 267-375, biotinylated in selections and radioactive assays (site not stated))
T1 construct: Phage ELISA used both unbiotinylated and biotinylated myostatin; also called biotinylated human myostatin; myostatin-biotin
T1 sequence (looked up): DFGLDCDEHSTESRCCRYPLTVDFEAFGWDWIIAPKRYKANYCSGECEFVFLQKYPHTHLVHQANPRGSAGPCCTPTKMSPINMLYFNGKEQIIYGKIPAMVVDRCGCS

B1: 45927-A10 (designed binder)
chain: MTIPEIIIKVRGTQVVGSDMTVIVEFTNPKRDTSVWLRNVWVHLDGPGVTRPMKKMFFTIGYPSTVQWEEVVRPWVSGRRKLIASMSPSILSKGNIGLGVYGELDVQIQRRDYKDDDDK
notes: group M3-Aext; H76R (wild type scaffold numbering)
B2: 39633-C1 (designed binder)
chain: MTIPEIIIKVRGTQVVGSDMTVIVEFTNPFKETLRSVWVHLDGPGVTRPMKKMFREIPPKTTVQWEEVVRPWVSGHRKLIASMRTQYLIHLYGELDVQIQRRDYKDDDDK
notes: group M1-A50; V91L; also called M17 (clone ID)
B3: 39633-G5 (designed binder)
chain: B2 chain with R55S, P58R, K60N, T61S
notes: group M1-A50; V91L
B4: 39633-G1 (designed binder)
chain: B2 chain with T27S, S36N
notes: group M1-A50; V91L
B5: 39973-G3 (designed binder)
chain: MTIPEIIIKVRGTQVVGSDMTVIVEFTNPLKETLRNVWVHLDGPGVTRPMKKMFEQIRESEYVQWEEVVRPWVSGHRKLIASMLTETRPHVYGELDVQIQRRDYKDDDDK
notes: group M3-A
B6: 45927-E5 (designed binder)
chain: MTIPEIIIKVRGTQVVGSDMTVIVEFTNPSNYRPCILRNVWVHLDGPGVTRPMKKMFKMIVYHSTVQWEEVVRPWVSGHRKLIASMSKFELSGTSSRGRVYGELDVQIQRRDYKDDDDK
notes: group M3-Aext
B7: 39973-D2 (designed binder)
chain: MTIPEIIIKVRGTQVVGSDMTVIVEFYFSPGARLATVWVHLDGPGVTRPMKKMFHSIYVPFWVQWEEVVRPWVSGHRKLIASMTTTVQGHVYGELDVQIQRRDYKDDDDK
notes: group M3-A
B8: 39973-B12 (designed binder)
chain: MTIPEIIIKVRGTQVVGSDMTVIVEFKHDRYRYLQQVWVHLDGPGVTRPMKKMFKLIIFSYPVQWEEVVRPWVSGHRKLIASMRFMCPSHVYGELDVQIQRRDYKDDDDK
notes: group M3-A
B9: 45927-A11 (designed binder)
chain: MTIPEIIIKVRGTQVVGSDMTVIVEFTNPLKETLRNVWVHLDGPGVTRPMKKMFQKIPGCSTVQWEEVVRPWVSGHRKLIASMSMLGLPFSLRFIPVYGELDVQIQRRDYKDDDDK
notes: group M1-Aext
B10: 45927-B7 (M50T) (designed binder)
chain: B9 chain with M50T, Q55L
notes: group M1-Aext; M50T
B11: 45927-E1 (designed binder)
chain: MTIPEIIIKVRGTQVVGSDMTVIVEFTNPLKETLRNVWVHLDGPGVTRPMKKMFTGILQWSTVQWEEVVRPWVSGHRKLIASMSPHAWWQHHGNFSVYGELDVQIQRRDYKDDDDK
notes: group M2-Aext
B12: 45927-A12 (designed binder)
chain: MTIPEIIIKVRGTQVVGSDMTVIVEFTNPLRVSEQTLRNVWVHLDGLGVTRPMKKMFGGIRVHSTVQWEEVVRPWVSGHRKLIASMSYVAEYGEWTHYSVYGELDVQIQRRDYKDDDDK
notes: group M3-Aext
B13: 39885-A1 (designed binder)
chain: MTIPEIIIKVRGTQVVGSDMTVIVEFTNPLKETLRNVWVHLDGPGVTRPMKKMFPAIPMNHKVQWEEVVRPWVSGHRKLIASMPQLFHIHVYGELDVQIQRRDYKDDDDK
notes: group M1-A; also called M1-1 (clone ID)
B14: 39888-B7 (designed binder)
chain: B13 chain with P84N, Q85S, L86S, F87S, H88N, I89Q
notes: group M3-A
B15: 39885-F8 (designed binder)
chain: B13 chain with I89L
notes: group M1-A; also called M7-L (clone ID)
B16: 39885-F10 (S82C) (designed binder)
chain: B13 chain with S82C
notes: group M1-A; S82C
B17: 39885-D11 (designed binder)
chain: B13 chain with P84I, Q85N, L86H, H88Y, I89K
notes: group M2-A
B18: 39633-A1 (designed binder)
chain: B2 chain with K60N, R84P, Q86H, Y87H, I89L, L91V
notes: group M4-A50
B19: 39908-G12 (designed binder)
chain: MTIPEIIIKVRGTQVVGSDMTVIVEFTNPFKETLRSVWVHLDGPGVTRPMKKMFSEIRPNSTVQWEEVVRPWVSGHRKLIASMPSLLHLHVYGELDVQIQRRDYKDDDDK
notes: group M2-A50; also called M10 (clone ID)
B20: 39885-C1 (designed binder)
chain: B13 chain with P84L, Q85N, L86H, H88Y, I89K
notes: group M2-A
B21: 39633-H6 (M50V) (designed binder)
chain: B19 chain with M50V, S55R, R58P, N60K, S61T
notes: group M2-A50; M50V
B22: 39885-F7 (designed binder)
chain: B13 chain with A56T, Q85H
notes: group M1-A
B23: 39973-C10 (designed binder)
chain: B13 chain with A56T, P58S, M59R, N60F, H61K, K62R, F87Q, I89L
notes: group M1-A
B24: 39885-B5 (F26V) (designed binder)
chain: B13 chain with F26V
notes: group M1-A; F26V; also called M2-1 (clone ID)
B25: 39888-A11 (D42N) (designed binder)
chain: B13 chain with D42N
notes: group M1-A; D42N; also called M14-1 (clone ID); 39888-All(D42N)
B26: 39885-G8 (designed binder)
chain: B13 chain with A56T
notes: group M1-A; also called M10-3 (clone ID)
B27: 39888-G5 (S82I) (designed binder)
chain: B13 chain with S82I
notes: group M1-A; S82I
B28: 39885-H9 (designed binder)
chain: B13 chain with P84I, Q85N, L86Y, H88Y, I89N
notes: group M2-A
B29: 39885-C11 (designed binder)
chain: B13 chain with P84I, Q85N, L86Y, H88Y, I89K
notes: group M2-A
B30: 39908-H10 (designed binder)
chain: B19 chain with S55R, R58P, N60K, S61T
notes: group M2-A50; also called M4 (clone ID)
B31: 39885-C7 (designed binder)
chain: B13 chain with P55R
notes: group M1-A; also called M3-1 (clone ID)
B32: 39633-D2 (designed binder)
chain: B19 chain with P29L, F30M, S36N
notes: group M2-A50
B33: 39885-D8 (K9R) (designed binder)
chain: B13 chain with K9R, N60D
notes: group M1-A; K9R; also called M5-2 (clone ID)
B34: 39908-G4 (designed binder)
chain: B19 chain with T27S, S36N
notes: group M2-A50; also called M7 (clone ID)
B35: 39633-D3 (V39M) (designed binder)
chain: B19 chain with T27S, S36N, V39M
notes: group M2-A50; V39M
B36: 39633-E4 (designed binder)
chain: B19 chain with T27S, S36N, N60D
notes: group M2-A50; also called M019 (clone ID)
B37: 39885-G5 (designed binder)
chain: B13 chain with M59Y, N60L, H61S, K62Y, F87H, I89L
notes: group M1-A; also called M8-L (clone ID)
B38: 39973-F10 (designed binder)
chain: B13 chain with P55A, A56T, M59P, N60Y, H61L, K62P, F87I, I89L
notes: group M1-A

Biological target: T1, human myostatin
Experiment: radioactive equilibrium binding assay
Protocol: Affinities of selected F13β2 binders to biotinylated myostatin were determined in radioactive equilibrium binding assay (FIGS. 11A and 11B; Table 3). ³⁵S-labeled binder proteins from selection pools and single clones were produced in vitro in a rabbit reticulocyte lysate translation kit (Ambion) and purified on M2-agarose (Sigma). Varying concentrations of biotinylated human myostatin (0-100 nM) or other proteins (protein 1: 100 nM; peptide 1: 250 nM; protein 2: 50 nM) were incubated with a constant concentration of the purified binder protein (1 or 2 nM) at 30° C. for 30 min in buffer B (1×PBS, 0.02% Triton X-100 [pH 7.4]). The receptor-binder complexes were captured by using 25 μl of M280 or Protein A (Dynal) (protein 2) magnetic beads for 10 min at room temperature on a Kingfisher instrument (Thermo Fisher Scientific). The beads were washed five times with 100 μl buffer B, and the amount of ³⁵S-methionine remained on the beads was measured by scintillation counting. Data were analyzed by using the GraphPad Prism software (GraphPad Software, Inc., San Diego, Calif.), fitted with a one-site, nonlinear binding equation. For inhibition assay the binding of ³⁵S-labeled proteins to 20 or 25 nM of biotinylated human myostatin was performed in the presence of varying concentrations of inhibitor (human activin receptor IIB/Fc chimera (R&D Systems, Minneapolis, Minn.) (0-250 nM); protein 1 (100 nM), peptide 1 (250 nM), protein 2 (50 nM); proteins, produced in E. coli, M17, M7, M29, M21, M1-1, WT F13β2 (500 nM)).

Row | B max [%] | Kd [nM] | Binder
1 | 8.07 | 16.1 | B1
2 | 74.8 | 39.9 | B2
3 | 64.1 | 33.6 | B3
4 | 52 | 38.9 | B4
5 | 1.81 | 22 | B5
6 | 8.36 | 64.1 | B6
7 | 7.66 | 32.9 | B7
8 | 7.77 | 34.5 | B8
9 | 41.2 | 65 | B9
10 | 46.4 | 57.6 | B10
11 | 4.57 | 6.04 | B11
12 | 3.08 | 1.47 | B12
13 | 67.3 | 21.8 | B13
14 | 1.19 | 7.09 | B14
15 | 98.6 | 28.1 | B15
16 | 73.7 | 15.4 | B16
17 | 22.3 | 41 | B17
18 | 63.9 | 25.5 | B18
19 | 34.1 | 25.6 | B19

Row | B max [%] | Kd [nM] | Binder
20 | 33.3 | 140 | B20
21 | 61.6 | 24.8 | B21
22 | 62.7 | 24.1 | B22
23 | 72 | 22.8 | B23
24 | 72.2 | 25.1 | B24
25 | 82.4 | 13.6 | B25
26 | 69.2 | 30.8 | B26
27 | 83.1 | 9.99 | B27
28 | 24.1 | 14.1 | B28
29 | 18.8 | 41.6 | B29
30 | 47.3 | 29.7 | B30
31 | 68.4 | 17.4 | B31
32 | 6.74 | 11.2 | B32
33 | 57.6 | 24.7 | B33
34 | 49 | 28.4 | B34
35 | 65.8 | 26.2 | B35
36 | 60 | 27.8 | B36
37 | 59.4 | 28.5 | B37
38 | 68 | 28.6 | B38
